Reference: US20230203108

B1: granzyme B variant K44F, L46E, K155P, K172L, S175I, K200R (protein)
chain: IIGGHEAKPHSRPYMAYLMIWDQFSEKRCGGFLIRDDFVLTAAHCWGSSINVTLGAHNIKEQEPTQQFIPVKRPIPHPAYNPKNFSNDIMLLQLERKAKRTRAVQPLRLPSNKAQVKPGQTCSVAGWGQTAPLGPHSHTLQEVKMTVQEDRLCEIDLRHYYDSTIELCVGDPEIKKTSFRGDSGGPLVCNKVAQGIVSYGRNNGMPPRACTKVSSFVHWIKKTMKRY
B2: granzyme B variant K44L, L46F, K155P, K172L, S175I, K200R (protein)
chain: IIGGHEAKPHSRPYMAYLMIWDQLSFKRCGGFLIRDDFVLTAAHCWGSSINVTLGAHNIKEQEPTQQFIPVKRPIPHPAYNPKNFSNDIMLLQLERKAKRTRAVQPLRLPSNKAQVKPGQTCSVAGWGQTAPLGPHSHTLQEVKMTVQEDRLCEIDLRHYYDSTIELCVGDPEIKKTSFRGDSGGPLVCNKVAQGIVSYGRNNGMPPRACTKVSSFVHWIKKTMKRY
B3: granzyme B variant K44L, L46Q, K155P, K172L, S175I, K200R (protein)
chain: IIGGHEAKPHSRPYMAYLMIWDQLSQKRCGGFLIRDDFVLTAAHCWGSSINVTLGAHNIKEQEPTQQFIPVKRPIPHPAYNPKNFSNDIMLLQLERKAKRTRAVQPLRLPSNKAQVKPGQTCSVAGWGQTAPLGPHSHTLQEVKMTVQEDRLCEIDLRHYYDSTIELCVGDPEIKKTSFRGDSGGPLVCNKVAQGIVSYGRNNGMPPRACTKVSSFVHWIKKTMKRY
B4: granzyme B variant K44F, L46Q, K155P, K172L, S175I, K200R (protein)
chain: IIGGHEAKPHSRPYMAYLMIWDQFSQKRCGGFLIRDDFVLTAAHCWGSSINVTLGAHNIKEQEPTQQFIPVKRPIPHPAYNPKNFSNDIMLLQLERKAKRTRAVQPLRLPSNKAQVKPGQTCSVAGWGQTAPLGPHSHTLQEVKMTVQEDRLCEIDLRHYYDSTIELCVGDPEIKKTSFRGDSGGPLVCNKVAQGIVSYGRNNGMPPRACTKVSSFVHWIKKTMKRY
B5: granzyme B variant K44L, R48E, K155P, K172L, S175I, K200R (protein)
chain: IIGGHEAKPHSRPYMAYLMIWDQLSLKECGGFLIRDDFVLTAAHCWGSSINVTLGAHNIKEQEPTQQFIPVKRPIPHPAYNPKNFSNDIMLLQLERKAKRTRAVQPLRLPSNKAQVKPGQTCSVAGWGQTAPLGPHSHTLQEVKMTVQEDRLCEIDLRHYYDSTIELCVGDPEIKKTSFRGDSGGPLVCNKVAQGIVSYGRNNGMPPRACTKVSSFVHWIKKTMKRY
B6: granzyme B variant K44L, L46I, K155P, K172L, S175I, K200R (protein)
chain: IIGGHEAKPHSRPYMAYLMIWDQLSIKRCGGFLIRDDFVLTAAHCWGSSINVTLGAHNIKEQEPTQQFIPVKRPIPHPAYNPKNFSNDIMLLQLERKAKRTRAVQPLRLPSNKAQVKPGQTCSVAGWGQTAPLGPHSHTLQEVKMTVQEDRLCEIDLRHYYDSTIELCVGDPEIKKTSFRGDSGGPLVCNKVAQGIVSYGRNNGMPPRACTKVSSFVHWIKKTMKRY
B7: granzyme B variant K44F, L46F, K155P, K172L, S175I, K200R (protein)
chain: IIGGHEAKPHSRPYMAYLMIWDQFSFKRCGGFLIRDDFVLTAAHCWGSSINVTLGAHNIKEQEPTQQFIPVKRPIPHPAYNPKNFSNDIMLLQLERKAKRTRAVQPLRLPSNKAQVKPGQTCSVAGWGQTAPLGPHSHTLQEVKMTVQEDRLCEIDLRHYYDSTIELCVGDPEIKKTSFRGDSGGPLVCNKVAQGIVSYGRNNGMPPRACTKVSSFVHWIKKTMKRY
B8: granzyme B variant K44F, L46I, K155P, K172L, S175I, K200R (protein)
chain: IIGGHEAKPHSRPYMAYLMIWDQFSIKRCGGFLIRDDFVLTAAHCWGSSINVTLGAHNIKEQEPTQQFIPVKRPIPHPAYNPKNFSNDIMLLQLERKAKRTRAVQPLRLPSNKAQVKPGQTCSVAGWGQTAPLGPHSHTLQEVKMTVQEDRLCEIDLRHYYDSTIELCVGDPEIKKTSFRGDSGGPLVCNKVAQGIVSYGRNNGMPPRACTKVSSFVHWIKKTMKRY
B9: granzyme B variant K44F, R48K, K155P, K172L, S175I, K200R (protein)
chain: IIGGHEAKPHSRPYMAYLMIWDQFSLKKCGGFLIRDDFVLTAAHCWGSSINVTLGAHNIKEQEPTQQFIPVKRPIPHPAYNPKNFSNDIMLLQLERKAKRTRAVQPLRLPSNKAQVKPGQTCSVAGWGQTAPLGPHSHTLQEVKMTVQEDRLCEIDLRHYYDSTIELCVGDPEIKKTSFRGDSGGPLVCNKVAQGIVSYGRNNGMPPRACTKVSSFVHWIKKTMKRY
B10: granzyme B variant K44L, L46E, K155P, K172L, S175I, K200R (protein)
chain: IIGGHEAKPHSRPYMAYLMIWDQLSEKRCGGFLIRDDFVLTAAHCWGSSINVTLGAHNIKEQEPTQQFIPVKRPIPHPAYNPKNFSNDIMLLQLERKAKRTRAVQPLRLPSNKAQVKPGQTCSVAGWGQTAPLGPHSHTLQEVKMTVQEDRLCEIDLRHYYDSTIELCVGDPEIKKTSFRGDSGGPLVCNKVAQGIVSYGRNNGMPPRACTKVSSFVHWIKKTMKRY
B11: granzyme B variant K44L, R48K, K155P, K172L, S175I, K200R (protein)
chain: IIGGHEAKPHSRPYMAYLMIWDQLSLKKCGGFLIRDDFVLTAAHCWGSSINVTLGAHNIKEQEPTQQFIPVKRPIPHPAYNPKNFSNDIMLLQLERKAKRTRAVQPLRLPSNKAQVKPGQTCSVAGWGQTAPLGPHSHTLQEVKMTVQEDRLCEIDLRHYYDSTIELCVGDPEIKKTSFRGDSGGPLVCNKVAQGIVSYGRNNGMPPRACTKVSSFVHWIKKTMKRY
B12: granzyme B variant K44F, R48E, K155P, K172L, S175I, K200R (protein)
chain: IIGGHEAKPHSRPYMAYLMIWDQFSLKECGGFLIRDDFVLTAAHCWGSSINVTLGAHNIKEQEPTQQFIPVKRPIPHPAYNPKNFSNDIMLLQLERKAKRTRAVQPLRLPSNKAQVKPGQTCSVAGWGQTAPLGPHSHTLQEVKMTVQEDRLCEIDLRHYYDSTIELCVGDPEIKKTSFRGDSGGPLVCNKVAQGIVSYGRNNGMPPRACTKVSSFVHWIKKTMKRY

Target: T1, Recombinant Human Serpin B9/SERPINB9 (C-6His) (Novoprotein, CJ32), P50453
T1 chain: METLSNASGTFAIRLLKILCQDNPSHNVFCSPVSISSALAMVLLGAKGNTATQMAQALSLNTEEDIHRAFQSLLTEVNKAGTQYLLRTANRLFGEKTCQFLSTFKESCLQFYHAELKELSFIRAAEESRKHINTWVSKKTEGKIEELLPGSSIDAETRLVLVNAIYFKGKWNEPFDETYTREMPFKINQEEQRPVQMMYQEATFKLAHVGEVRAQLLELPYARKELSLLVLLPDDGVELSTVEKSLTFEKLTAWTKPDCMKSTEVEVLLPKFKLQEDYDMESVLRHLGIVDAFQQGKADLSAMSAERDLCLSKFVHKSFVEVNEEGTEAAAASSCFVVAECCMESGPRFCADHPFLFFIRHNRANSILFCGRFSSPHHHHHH
B1 was tested, and the “protease activity (cleavage of Ac-IEPD-pNA, absorbance at 405 nm) after 1 h at 37 C with 0.5 uM PI-9, relative to wild-type granzyme B” value was “the variants maintained high protease activity even in the presence of inhibitors”. For B2, the “protease activity (cleavage of Ac-IEPD-pNA, absorbance at 405 nm) after 1 h at 37 C with 0.5 uM PI-9, relative to wild-type granzyme B” value was “the variants maintained high protease activity even in the presence of inhibitors”. In the case of B3, the “protease activity (cleavage of Ac-IEPD-pNA, absorbance at 405 nm) after 1 h at 37 C with 0.5 uM PI-9, relative to wild-type granzyme B” value is reported as “the variants maintained high protease activity even in the presence of inhibitors”. In the case of B4, the “protease activity (cleavage of Ac-IEPD-pNA, absorbance at 405 nm) after 1 h at 37 C with 0.5 uM PI-9, relative to wild-type granzyme B” value is reported as “the variants maintained high protease activity even in the presence of inhibitors”. In the case of B5, the “protease activity (cleavage of Ac-IEPD-pNA, absorbance at 405 nm) after 1 h at 37 C with 0.5 uM PI-9, relative to wild-type granzyme B” value is reported as “the variants maintained high protease activity even in the presence of inhibitors”. In the case of B6, the “protease activity (cleavage of Ac-IEPD-pNA, absorbance at 405 nm) after 1 h at 37 C with 0.5 uM PI-9, relative to wild-type granzyme B” value is reported as “the variants maintained high protease activity even in the presence of inhibitors”. With B7 the “protease activity (cleavage of Ac-IEPD-pNA, absorbance at 405 nm) after 1 h at 37 C with 0.5 uM PI-9, relative to wild-type granzyme B” value was “the variants maintained high protease activity even in the presence of inhibitors”. For B8, the “protease activity (cleavage of Ac-IEPD-pNA, absorbance at 405 nm) after 1 h at 37 C with 0.5 uM PI-9, relative to wild-type granzyme B” value was “the variants maintained high protease activity even in the presence of inhibitors”. In the case of B9, the “protease activity (cleavage of Ac-IEPD-pNA, absorbance at 405 nm) after 1 h at 37 C with 0.5 uM PI-9, relative to wild-type granzyme B” value is reported as “the variants maintained high protease activity even in the presence of inhibitors”. In the case of B10, the “protease activity (cleavage of Ac-IEPD-pNA, absorbance at 405 nm) after 1 h at 37 C with 0.5 uM PI-9, relative to wild-type granzyme B” value is reported as “the variants maintained high protease activity even in the presence of inhibitors”. In the case of B11, the “protease activity (cleavage of Ac-IEPD-pNA, absorbance at 405 nm) after 1 h at 37 C with 0.5 uM PI-9, relative to wild-type granzyme B” value is reported as “the variants maintained high protease activity even in the presence of inhibitors”. With B12 the “protease activity (cleavage of Ac-IEPD-pNA, absorbance at 405 nm) after 1 h at 37 C with 0.5 uM PI-9, relative to wild-type granzyme B” value was “the variants maintained high protease activity even in the presence of inhibitors”.
